Reference: US20220227830A1, “QD DOSING OF GIP RECEPTOR AGONIST PEPTIDE COMPOUNDS AND USES THEREOF” (Takeda Pharmaceutical Company Limited, priority 2020, published 2022)
Starred links: 1 amine or outer side, 2 acyl side, 3 side chain; linkers in the order of their positions; H or OH if unused. Non-standard residues stand in square brackets, D forms with d. Groups on a side chain read outwards from the residue. No end group written: not given here. *: point of attachment. G2E3 = linker of 2 Gly and 3 Glu (read GGEEE); C16 diacid = O=C(O)CCCCCCCCCCCCCCC(=O)*; C15 diacid = O=C(O)CCCCCCCCCCCCCC(=O)*; γGlu = O=C(O)[C@H](CCC(=O)[*:2])N[*:1]; NMeY = CN[C@@H](Cc1ccc(O)cc1)C(=O)O; AEEA = NCCOCCOCC(=O)O; Aib = CC(C)(N)C(=O)O

T1: full-length human GIPR with an N-terminal FLAG tag (human, UniProt P48546 22-466)
T1 sequence (looked up): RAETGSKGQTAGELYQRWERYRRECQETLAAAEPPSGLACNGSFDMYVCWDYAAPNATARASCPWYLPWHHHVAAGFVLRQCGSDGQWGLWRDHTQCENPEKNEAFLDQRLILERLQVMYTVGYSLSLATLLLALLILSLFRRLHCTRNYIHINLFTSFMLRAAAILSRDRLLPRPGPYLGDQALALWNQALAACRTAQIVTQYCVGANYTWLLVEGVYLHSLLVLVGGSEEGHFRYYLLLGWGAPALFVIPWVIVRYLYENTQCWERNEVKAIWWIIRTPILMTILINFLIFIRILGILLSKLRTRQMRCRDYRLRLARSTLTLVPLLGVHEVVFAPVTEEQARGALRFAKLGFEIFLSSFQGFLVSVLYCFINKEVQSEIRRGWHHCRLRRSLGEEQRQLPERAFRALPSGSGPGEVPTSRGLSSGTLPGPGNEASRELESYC


Key:
[1] = molecular target: T1, full-length human GIPR with an …; experiment: cell-based or functional assay
[2] = molecular target: full-length human GLP-1R with an N-terminal FLAG tag (human, UniProt P43220 24-463); experiment: cell-based or functional assay

Binder	Human GIPR cAMP, HEK293T EC50 [1]	Human GLP1R cAMP HEK293T EC50 [2]
Me-Y[Aib]EGTFISDYSI[Aib]K([AEEA-AEEA-γGlu-γGlu-C15 diacid])DR[Aib]AQ[Aib]NFVNWLLAQSPSSGAPPPS-NH2 [Compound 139]	0.0004 nM	1000 nM
Me-Y[Aib]EGTFISDYSI[Aib]LDR[Aib]AQ[Aib]NFVNWLLAQK([AEEA-AEEA-γGlu-γGlu-C15 diacid])GGGGS-NH2 [Compound 136]	0.0009 nM	407 nM
[NMeY][Aib]EGTFISDYSI[Aib]KDR[Aib]AQ[Aib]NFVNWLLAQRGGGGS-NH2 (not fully specified (residue 14)) [Compound 134]	0.0004 nM	1000 nM
[NMeY][Aib]EGTFISDYSIALDR[Aib]KQ[Aib]NFVNWLLAQSGGGGS-NH2 (not fully specified (residue 18)) [Compound 133]	0.0005 nM	1000 nM
Me-Y[Aib]EGTFISDYSIALDR[Aib]AQ[Aib]K([AEEA-AEEA-γGlu-γGlu-C15 diacid])FVNWLLAQSG-OH [Compound 149]	0.0007 nM	25.7 nM
[NMeY][Aib]EGTFISDYSIALDRK([Gly-Gly-Gly-Gly-Gly-γGlu-C15 diacid])AQ[Aib]DFVNWLLAQRPSSGAPPPS-NH2 [Compound 137]	0.0002 nM	479 nM
Me-Y[Aib]EGTFISDYSIAKDR[Aib]AQ[Aib]NFVNWLLAQSPSSGAPPPS-OH (not fully specified (residues 1, 14)) [Compound 150]	0.0003 nM	30.2 nM
[NMeY][Aib]EGTFISDYSI[Aib]LDRK([AEEA-AEEA-γGlu-γGlu-C16 diacid])AQ[Aib]NFVNWLLAQRPSSGAPPPS-NH2 [Compound 145]	0.0004 nM	912 nM
Me-Y[Aib]EGTFISDYSI[Aib]KDR[Aib]AQ[Aib]DFVNWLLAQSG-OH (not fully specified (residues 1, 14)) [Compound 141]	0.0003 nM	64.6 nM
[NMeY][Aib]EGTFISDYSI[Aib]LDRK([AEEA-AEEA-γGlu-γGlu-C15 diacid])AQ[Aib]NFVNWLLAQRGGGGS-NH2 [Compound 135]	0.0005 nM	646 nM
Me-Y[Aib]EGTFISDYSIAKDR[Aib]AQ[Aib]DFVNWLLAQSPSSGAPPPS-NH2 (not fully specified (residues 1, 14)) [Compound 151]	0.0004 nM	145 nM
Me-Y[Aib]EGTFISDYSIAKDR[Aib]AQ[Aib]DFVNWLLAQRPSSGAPPPS-OH (not fully specified (residues 1, 14)) [Compound 146]	0.0005 nM	112 nM
[NMeY][Aib]EGTFISDYSI[Aib]K([AEEA-AEEA-γGlu-C15 diacid])DR[Aib]AQ[Aib]DFVNWLLAQSPSSGAPPPS-NH2 (N-terminus assumed; SMILES CC[C@H](C)[C@H](NC(=O)[C@H](Cc1ccccc1)NC(=O)[C@@H](NC(=O)CNC(=O)[C@H](CCC(=O)O)NC(=O)C(C)(C)NC(=O)[C@H](Cc1ccc(O)cc1)NC)[C@@H](C)O)C(=O)N[C@@H](CO)C(=O)N[C@@H](CC(=O)O)C(=O)N[C@@H](Cc1ccc(O)cc1)C(=O)N[C@@H](CO)C(=O)N[C@H](C(=O)NC(C)(C)C(=O)N[C@@H](CCCCNC(=O)COCCOCCNC(=O)COCCOCCNC(=O)CC[C@H](NC(=O)CCCCCCCCCCCCCC(=O)O)C(=O)O)C(=O)N[C@@H](CC(=O)O)C(=O)N[C@@H](CCCNC(=N)N)C(=O)NC(C)(C)C(=O)N[C@@H](C)C(=O)N[C@@H](CCC(N)=O)C(=O)NC(C)(C)C(=O)N[C@@H](CC(=O)O)C(=O)N[C@@H](Cc1ccccc1)C(=O)N[C@H](C(=O)N[C@@H](CC(N)=O)C(=O)N[C@@H](Cc1c[nH]c2ccccc12)C(=O)N[C@@H](CC(C)C)C(=O)N[C@@H](CC(C)C)C(=O)N[C@@H](C)C(=O)N[C@@H](CCC(N)=O)C(=O)N[C@@H](CO)C(=O)N1CCC[C@H]1C(=O)N[C@@H](CO)C(=O)N[C@@H](CO)C(=O)NCC(=O)N[C@@H](C)C(=O)N1CCC[C@H]1C(=O)N1CCC[C@H]1C(=O)N1CCC[C@H]1C(=O)N[C@@H](CO)C(N)=O)C(C)C)[C@@H](C)CC) [Compound 129]	0.0005 nM	1000 nM
[NMeY][Aib]EGTFISDYSIALDR[Aib]HQ[Aib]K([AEEA-AEEA-γGlu-C15 diacid])FVNWLLAQK-OH (N-terminus assumed; SMILES CC[C@H](C)[C@H](NC(=O)[C@H](CO)NC(=O)[C@H](Cc1ccc(O)cc1)NC(=O)[C@H](CC(=O)O)NC(=O)[C@H](CO)NC(=O)[C@@H](NC(=O)[C@H](Cc1ccccc1)NC(=O)[C@@H](NC(=O)CNC(=O)[C@H](CCC(=O)O)NC(=O)C(C)(C)NC(=O)[C@H](Cc1ccc(O)cc1)NC)[C@@H](C)O)[C@@H](C)CC)C(=O)N[C@@H](C)C(=O)N[C@@H](CC(C)C)C(=O)N[C@@H](CC(=O)O)C(=O)N[C@@H](CCCNC(=N)N)C(=O)NC(C)(C)C(=O)N[C@@H](Cc1c[nH]cn1)C(=O)N[C@@H](CCC(N)=O)C(=O)NC(C)(C)C(=O)N[C@@H](CCCCNC(=O)COCCOCCNC(=O)COCCOCCNC(=O)CC[C@H](NC(=O)CCCCCCCCCCCCCC(=O)O)C(=O)O)C(=O)N[C@@H](Cc1ccccc1)C(=O)N[C@H](C(=O)N[C@@H](CC(N)=O)C(=O)N[C@@H](Cc1c[nH]c2ccccc12)C(=O)N[C@@H](CC(C)C)C(=O)N[C@@H](CC(C)C)C(=O)N[C@@H](C)C(=O)N[C@@H](CCC(N)=O)C(=O)N[C@@H](CCCCN)C(=O)O)C(C)C) [Compound 12]	0.0002 nM	363 nM
[NMeY][Aib]EGTFISDYSIALDRK([Gly-Gly-Gly-Gly-Gly-γGlu-C15 diacid])AQ[Aib]NFVNWLLAQSPSSGAPPPS-NH2 (N-terminus assumed; SMILES CC[C@H](C)[C@H](NC(=O)[C@H](CO)NC(=O)[C@H](Cc1ccc(O)cc1)NC(=O)[C@H](CC(=O)O)NC(=O)[C@H](CO)NC(=O)[C@@H](NC(=O)[C@H](Cc1ccccc1)NC(=O)[C@@H](NC(=O)CNC(=O)[C@H](CCC(=O)O)NC(=O)C(C)(C)NC(=O)[C@H](Cc1ccc(O)cc1)NC)[C@@H](C)O)[C@@H](C)CC)C(=O)N[C@@H](C)C(=O)N[C@@H](CC(C)C)C(=O)N[C@@H](CC(=O)O)C(=O)N[C@@H](CCCNC(=N)N)C(=O)N[C@@H](CCCCNC(=O)CNC(=O)CNC(=O)CNC(=O)CNC(=O)CNC(=O)CC[C@H](NC(=O)CCCCCCCCCCCCCC(=O)O)C(=O)O)C(=O)N[C@@H](C)C(=O)N[C@@H](CCC(N)=O)C(=O)NC(C)(C)C(=O)N[C@@H](CC(N)=O)C(=O)N[C@@H](Cc1ccccc1)C(=O)N[C@H](C(=O)N[C@@H](CC(N)=O)C(=O)N[C@@H](Cc1c[nH]c2ccccc12)C(=O)N[C@@H](CC(C)C)C(=O)N[C@@H](CC(C)C)C(=O)N[C@@H](C)C(=O)N[C@@H](CCC(N)=O)C(=O)N[C@@H](CO)C(=O)N1CCC[C@H]1C(=O)N[C@@H](CO)C(=O)N[C@@H](CO)C(=O)NCC(=O)N[C@@H](C)C(=O)N1CCC[C@H]1C(=O)N1CCC[C@H]1C(=O)N1CCC[C@H]1C(=O)N[C@@H](CO)C(N)=O)C(C)C) [Compound 131]	0.0003 nM	75.9 nM
Me-Y[Aib]EGTFISDYSI[Aib]KDR[Aib]AQ[Aib]DFVNWLLAQSPSSGAPPPS-NH2 (not fully specified (residues 1, 14)) [Compound 140]	0.0004 nM	178 nM
Me-Y[Aib]EGTFISDYSI[Aib]K([G2E3-C15 diacid])DR[Aib]AQ[Aib]NFVNWLLAQRPSSGAPPPS-NH2 [Compound 138]	0.0004 nM	1000 nM
[NMeY][Aib]EGTFISDYSIALDRK([G5-γGlu-C15DA])AQ[Aib]DFVNWLLAQSPSSGAPPPS-NH2 [Compound 132]	0.0001 nM	21.9 nM
Me-Y[Aib]EGTFISDYSIAKDR[Aib]AQ[Aib]NFVNWLLAQRPSSGAPPPS-OH (not fully specified (residues 1, 14)) [Compound 147]	0.0011 nM	16.6 nM
[NMeY][Aib]EGTFISDYSIALDR[Aib]AQ[Aib]KFVNWLLAQRPSSGAPPPS-NH2 (not fully specified (residue 21)) [Compound 130]	0.0004 nM	91.2 nM
